Results on 2 molecules are retold here after patent US20150299296A1 (Chugai, published 2015).

Test [1] deals with T1, human FcγRIIIa type V extracellular domain with C-terminal His tag (human, UniProt P08637 17-208).
T1 construct: extracellular domain; also called FcgRIIIaV; FcγRIIIaV
The test can be described thus: SPR.

Test [2] has as its target T2, human FcγRIa extracellular domain with C-terminal His tag (human, UniProt P12314 16-292).
T2 construct: Whole entry named; also called FcgRIa; FcgIa
The test can be described thus: SPR. (In general: In SPR one partner is held on a chip, and binding of the other changes the refractive index at the surface.)

In test [3] the target is T3, human FcγRIIa type H extracellular domain with C-terminal His tag (human, UniProt P12318 34-217).
T3 construct: extracellular domain; also called FcgRIIaH; FcγRIIa H
T3 sequence (looked up): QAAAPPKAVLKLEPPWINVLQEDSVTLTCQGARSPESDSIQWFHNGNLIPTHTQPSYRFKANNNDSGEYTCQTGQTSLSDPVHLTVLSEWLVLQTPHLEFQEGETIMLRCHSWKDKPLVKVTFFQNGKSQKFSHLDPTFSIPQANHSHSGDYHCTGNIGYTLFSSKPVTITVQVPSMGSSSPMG
The test can be described thus: SPR.

For test [4], the target named is T4, FcγRIIIa extracellular domain with C-terminal His tag, allotype not stated (Reference Example 4) (human, UniProt P08637 17-208).
T4 construct: extracellular domain
T4 sequence (P08637 17-208): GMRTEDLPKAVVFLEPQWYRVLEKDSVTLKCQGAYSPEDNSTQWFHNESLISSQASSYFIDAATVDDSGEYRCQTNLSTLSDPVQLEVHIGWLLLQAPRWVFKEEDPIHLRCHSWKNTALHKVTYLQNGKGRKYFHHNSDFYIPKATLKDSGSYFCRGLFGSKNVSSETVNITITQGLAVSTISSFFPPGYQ
The test can be described thus: SPR (Biacore): antibody captured on the chip, FcγR as analyte; amount bound divided by amount of antibody captured, relative to the antibody without mutation in B3 = 100 (Reference Examples 2 and 3).

Test [5] concerns the target T2, human FcγRIa extracellular domain with …. The description is as above.

T2 sequence (P12314 16-292): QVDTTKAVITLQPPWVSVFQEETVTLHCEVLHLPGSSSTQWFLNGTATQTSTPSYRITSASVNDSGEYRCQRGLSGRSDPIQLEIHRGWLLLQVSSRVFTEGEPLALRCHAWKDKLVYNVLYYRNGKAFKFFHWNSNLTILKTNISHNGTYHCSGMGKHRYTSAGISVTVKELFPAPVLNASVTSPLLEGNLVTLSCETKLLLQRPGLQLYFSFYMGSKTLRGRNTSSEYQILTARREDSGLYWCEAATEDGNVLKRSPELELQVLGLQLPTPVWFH
T1 sequence (P08637 17-208 F176V): as the sequence (P08637 17-208) above, with F160V counted along it

B1: IL6R-BP253/IL6R-L (antibody, human IgG1, kappa)
heavy: QVQLQESGPGLVKPSETLSLTCAVSGHSISHDHAWSWVRQPPGEGLEWIGFISYSGITNYNPSLQGRVTISRDNSKNTLYLQMNSLRAEDTAVYYCARSLARTTAMDYWGEGTLVTVSSASTKGPSVFPLAPSSKSTSGGTAALGCLVKDYFPEPVTVSWNSGALTSGVHTFPAVLQSSGLYSLSSVVTVPSSSLGTQTYICNVNHKPSNTKVDKKVEPKSCDKTHTCPPCPAPELLGGPSVFLFPPKPKDTLMISRTPEVTCVVVDVEHEDPEVKFNWYVDGVEVHNAKTKPREEQYNSTYRVVSVLTVLHQDWLNGKEYKCKVSNKAFPAPIEKTISKAKGQPREPQVYTLPPSRDELTKNQVSLTCLVKGFYPSDIAVEWESNGQPENNYKTTPPVLDSDGSFFLYSKLTVDKSRWQQGNVFSCSVMHEALHNHYTQESLSLSP
light: not shown
notes: IL6R-B3 with S267E and L328F; also called IL6R-BP253/ILR-L
For the molecule B1, the binding result in test [1], in test [2] and in test [3] was “binds” each time.

B2: mutation A (antibody, human IgG1, kappa)
heavy chain: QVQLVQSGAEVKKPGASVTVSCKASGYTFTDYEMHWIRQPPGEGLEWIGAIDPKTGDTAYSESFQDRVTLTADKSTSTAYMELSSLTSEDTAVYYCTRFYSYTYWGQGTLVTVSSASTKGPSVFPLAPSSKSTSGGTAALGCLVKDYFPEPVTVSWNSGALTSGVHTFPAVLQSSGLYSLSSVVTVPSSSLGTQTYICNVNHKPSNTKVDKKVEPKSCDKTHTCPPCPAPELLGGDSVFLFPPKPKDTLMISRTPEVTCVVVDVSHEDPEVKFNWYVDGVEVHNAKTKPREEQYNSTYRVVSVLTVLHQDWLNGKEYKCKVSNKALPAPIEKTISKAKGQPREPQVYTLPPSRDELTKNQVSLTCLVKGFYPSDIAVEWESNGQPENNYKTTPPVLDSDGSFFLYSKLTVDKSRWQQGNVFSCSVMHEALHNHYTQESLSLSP
light chain: DIVMTQSPLSLPVTPGEPASISCQASESLVHSNRNTYLHWYLQKPGQSPQLLIYKVSNRFSGVPDRFSGSGSGTDFTLKISRVEAEDVGVYYCSQNTHVPPTFGQGTKVEIERTVAAPSVFIFPPSDEQLKSGTASVVCLLNNFYPREAKVQWKVDNALQSGNSQESVTEQDSKDSTYSLSSTLTLSKADYEKHKVYACEVTHQGLSSPVTKSFNRGEC
With B2, the binding result is listed as “no binding” in test [4] and “binds” in test [5].
